Sequences and labels used below:
B1: P1AE5739 (antibody, V domains shown)
VH: EVQLVESGGGVVQPGRSLRLSCAASGFSFSNYGMAWVRQAPGKGLEWVASISTGGGNTYYRDSVKGRFTISRDNAKNTLYLQMNSLRAEDTAVYYCTRHDRGGLYWGQGTMVTVSS
VL: DIVMTQSPLSLPVTPGEPASISCRSSKSLLHSNGITYVYWYLQKPGQSPQVLIYRMSNLASGVPDRFSGSGSGTDFTLKISRVEAEDVGVYHCGQLLENPYTFGQGTKLEIK
B2: P1AE5742 (antibody, V domains shown)
VH: EVQLVESGGGVVQPGRSLRLSCAASGFSFSNYGMAWVRQAPGKGLEWVASISTGGGNTYYRDSVKGRFTISRDNAKNTLYLQMNSLRAEDTAVYYCTRHDRGGLYWGQGTMVTVSS
VL: DIVMTQSPDSLAVSLGERATINCKSSKSLLHSNGITYVYWYQQKPGQPPKLLIYRMSNLASGVPDRFSGSGSGTDFTLTISSLQAEDVAVYHCGQLLENPYTFGQGTKLEIK
B3: P1AE5744 (antibody, V domains shown)
VH: QVQLVESGGGVVQPGRSLRLSCAASGFSFSNYGMAWVRQAPGKGLEWVASISTGGGNTYYADSVKGRFTISRDNSKNTLYLQMNSLRAEDTAVYYCTRHDRGGLYWGQGTMVTVSS
VL: DIVMTQSPLSLPVTPGEPASISCRSSKSLLHSNGITYVYWYLQKPGQSPQVLIYRMSNLASGVPDRFSGSGSGTDFTLKISRVEAEDVGVYHCGQLLENPYTFGQGTKLEIK
B4: P1AE5760 (antibody, V domains shown)
VH: EVQLVESGGGLVQPGGSLRLSCAASGFSFSNYGMAWVRQAPGKGLEWVASISTGGGNTYYADSVKGRFTISRDNAKNTLYLQMNSLRAEDTAVYYCTRHDRGGLYWGQGTMVTVSS
VL: DIVMTQSPLSLPVTPGEPASISCRSSKSLLHSNGITYVYWYLQKPGQSPQVLIYRMSNLASGVPDRFSGSGSGTDFTLKISRVEAEDVGVYHCGQLLENPYTFGQGTKLEIK
B5: P1AE5746 (antibody, V domains shown)
VH: QVQLVESGGGVVQPGRSLRLSCAASGFSFSNYGMAWVRQAPGKGLEWVASISTGGGNTYYADSVKGRFTISRDNSKNTLYLQMNSLRAEDTAVYYCTRHDRGGLYWGQGTMVTVSS
VL: DIVMTQSPLSLPVTPGEPASISCRSSKSLLHSNGITYVYWYLQKPGQSPQLLIYRMSNRASGVPDRFSGSGSGTDFTLKISRVEAEDVGVYHCGQLLENPYTFGQGTKLEIK
B6: P1AE5755 (antibody, V domains shown)
VH: EVQLVESGGGLVQPGGSLRLSCAASGFSFSNYGMAWVRQAPGKGLEWVASISTGGGNTYYRDSVKGRFTISRDNAKNTLYLQMNSLRAEDTAVYYCTRHDRGGLYWGQGTMVTVSS
VL: DIVMTQSPLSLPVTPGEPASISCRSSKSLLHSNGITYVYWYLQKPGQSPQVLIYRMSNLASGVPDRFSGSGSGTDFTLKISRVEAEDVGVYHCGQLLENPYTFGQGTKLEIK
B7: P1AE5747 (antibody, V domains shown)
VH: QVQLVESGGGVVQPGRSLRLSCAASGFSFSNYGMAWVRQAPGKGLEWVASISTGGGNTYYADSVKGRFTISRDNSKNTLYLQMNSLRAEDTAVYYCTRHDRGGLYWGQGTMVTVSS
VL: DIVMTQSPDSLAVSLGERATINCKSSKSLLHSNGITYVYWYQQKPGQPPKLLIYRMSNLASGVPDRFSGSGSGTDFTLTISSLQAEDVAVYHCGQLLENPYTFGQGTKLEIK
B8: P1AE5762 (antibody, V domains shown)
VH: EVQLVESGGGLVQPGGSLRLSCAASGFSFSNYGMAWVRQAPGKGLEWVASISTGGGNTYYADSVKGRFTISRDNAKNTLYLQMNSLRAEDTAVYYCTRHDRGGLYWGQGTMVTVSS
VL: DIVMTQSPLSLPVTPGEPASISCRSSKSLLHSNGITYVYWYLQKPGQSPQLLIYRMSNRASGVPDRFSGSGSGTDFTLKISRVEAEDVGVYHCGQLLENPYTFGQGTKLEIK
B9: P1AE5740 (antibody, V domains shown)
VH: EVQLVESGGGVVQPGRSLRLSCAASGFSFSNYGMAWVRQAPGKGLEWVASISTGGGNTYYRDSVKGRFTISRDNAKNTLYLQMNSLRAEDTAVYYCTRHDRGGLYWGQGTMVTVSS
VL: DIVMTQSPLSLPVTPGEPASISCRSSKSLLHSNGITYVYWYLQKPGKSPQVLIYRMSNLASGVPDRFSGSGSGTDFTLKISRVEAEDVGVYHCGQLLENPYTFGQGTKLEIK
B10: P1AE5745 (antibody, V domains shown)
VH: QVQLVESGGGVVQPGRSLRLSCAASGFSFSNYGMAWVRQAPGKGLEWVASISTGGGNTYYADSVKGRFTISRDNSKNTLYLQMNSLRAEDTAVYYCTRHDRGGLYWGQGTMVTVSS
VL: DIVMTQSPLSLPVTPGEPASISCRSSKSLLHSNGITYVYWYLQKPGKSPQVLIYRMSNLASGVPDRFSGSGSGTDFTLKISRVEAEDVGVYHCGQLLENPYTFGQGTKLEIK
B11: P1AE5737 (antibody, V domains shown)
VH: QVQLVESGGGVVQPGRSLRLSCAASGFSFSNYGMAWVRQAPGKGLEWVASISTGGGNTYYRDSVKGRFTISRDNSKNTLYLQMNSLRAEDTAVYYCTRHDRGGLYWGQGTMVTVSS
VL: DIVMTQSPDSLAVSLGERATINCKSSKSLLHSNGITYVYWYQQKPGQPPKLLIYRMSNLASGVPDRFSGSGSGTDFTLTISSLQAEDVAVYHCGQLLENPYTFGQGTKLEIK
B12: P1AE5757 (antibody, V domains shown)
VH: EVQLVESGGGLVQPGGSLRLSCAASGFSFSNYGMAWVRQAPGKGLEWVASISTGGGNTYYRDSVKGRFTISRDNAKNTLYLQMNSLRAEDTAVYYCTRHDRGGLYWGQGTMVTVSS
VL: DIVMTQSPLSLPVTPGEPASISCRSSKSLLHSNGITYVYWYLQKPGQSPQLLIYRMSNRASGVPDRFSGSGSGTDFTLKISRVEAEDVGVYHCGQLLENPYTFGQGTKLEIK
B13: P1AE5734 (antibody, V domains shown)
VH: QVQLVESGGGVVQPGRSLRLSCAASGFSFSNYGMAWVRQAPGKGLEWVASISTGGGNTYYRDSVKGRFTISRDNSKNTLYLQMNSLRAEDTAVYYCTRHDRGGLYWGQGTMVTVSS
VL: DIVMTQSPLSLPVTPGEPASISCRSSKSLLHSNGITYVYWYLQKPGQSPQVLIYRMSNLASGVPDRFSGSGSGTDFTLKISRVEAEDVGVYHCGQLLENPYTFGQGTKLEIK
B14: P1AE5735 (antibody, V domains shown)
VH: QVQLVESGGGVVQPGRSLRLSCAASGFSFSNYGMAWVRQAPGKGLEWVASISTGGGNTYYRDSVKGRFTISRDNSKNTLYLQMNSLRAEDTAVYYCTRHDRGGLYWGQGTMVTVSS
VL: DIVMTQSPLSLPVTPGEPASISCRSSKSLLHSNGITYVYWYLQKPGKSPQVLIYRMSNLASGVPDRFSGSGSGTDFTLKISRVEAEDVGVYHCGQLLENPYTFGQGTKLEIK
B15: P1AE5761 (antibody, V domains shown)
VH: EVQLVESGGGLVQPGGSLRLSCAASGFSFSNYGMAWVRQAPGKGLEWVASISTGGGNTYYADSVKGRFTISRDNAKNTLYLQMNSLRAEDTAVYYCTRHDRGGLYWGQGTMVTVSS
VL: DIVMTQSPLSLPVTPGEPASISCRSSKSLLHSNGITYVYWYLQKPGKSPQVLIYRMSNLASGVPDRFSGSGSGTDFTLKISRVEAEDVGVYHCGQLLENPYTFGQGTKLEIK
B16: P1AE5756 (antibody, V domains shown)
VH: EVQLVESGGGLVQPGGSLRLSCAASGFSFSNYGMAWVRQAPGKGLEWVASISTGGGNTYYRDSVKGRFTISRDNAKNTLYLQMNSLRAEDTAVYYCTRHDRGGLYWGQGTMVTVSS
VL: DIVMTQSPLSLPVTPGEPASISCRSSKSLLHSNGITYVYWYLQKPGKSPQVLIYRMSNLASGVPDRFSGSGSGTDFTLKISRVEAEDVGVYHCGQLLENPYTFGQGTKLEIK
B17: P1AE5751 (antibody, V domains shown)
VH: EVQLVESGGGVVQPGRSLRLSCAASGFSFSNYGMAWVRQAPGKGLEWVASISTGGGNTYYADSVKGRFTISRDNAKNTLYLQMNSLRAEDTAVYYCTRHDRGGLYWGQGTMVTVSS
VL: DIVMTQSPLSLPVTPGEPASISCRSSKSLLHSNGITYVYWYLQKPGKSPQVLIYRMSNLASGVPDRFSGSGSGTDFTLKISRVEAEDVGVYHCGQLLENPYTFGQGTKLEIK
B18: P1AE5736 (antibody, V domains shown)
VH: QVQLVESGGGVVQPGRSLRLSCAASGFSFSNYGMAWVRQAPGKGLEWVASISTGGGNTYYRDSVKGRFTISRDNSKNTLYLQMNSLRAEDTAVYYCTRHDRGGLYWGQGTMVTVSS
VL: DIVMTQSPLSLPVTPGEPASISCRSSKSLLHSNGITYVYWYLQKPGQSPQLLIYRMSNRASGVPDRFSGSGSGTDFTLKISRVEAEDVGVYHCGQLLENPYTFGQGTKLEIK
B19: P1AE5741 (antibody, V domains shown)
VH: EVQLVESGGGVVQPGRSLRLSCAASGFSFSNYGMAWVRQAPGKGLEWVASISTGGGNTYYRDSVKGRFTISRDNAKNTLYLQMNSLRAEDTAVYYCTRHDRGGLYWGQGTMVTVSS
VL: DIVMTQSPLSLPVTPGEPASISCRSSKSLLHSNGITYVYWYLQKPGQSPQLLIYRMSNRASGVPDRFSGSGSGTDFTLKISRVEAEDVGVYHCGQLLENPYTFGQGTKLEIK
B20: P1AE5750 (antibody, V domains shown)
VH: EVQLVESGGGVVQPGRSLRLSCAASGFSFSNYGMAWVRQAPGKGLEWVASISTGGGNTYYADSVKGRFTISRDNAKNTLYLQMNSLRAEDTAVYYCTRHDRGGLYWGQGTMVTVSS
VL: DIVMTQSPLSLPVTPGEPASISCRSSKSLLHSNGITYVYWYLQKPGQSPQVLIYRMSNLASGVPDRFSGSGSGTDFTLKISRVEAEDVGVYHCGQLLENPYTFGQGTKLEIK
B21: P1AE5752 (antibody, V domains shown)
VH: EVQLVESGGGVVQPGRSLRLSCAASGFSFSNYGMAWVRQAPGKGLEWVASISTGGGNTYYADSVKGRFTISRDNAKNTLYLQMNSLRAEDTAVYYCTRHDRGGLYWGQGTMVTVSS
VL: DIVMTQSPLSLPVTPGEPASISCRSSKSLLHSNGITYVYWYLQKPGQSPQLLIYRMSNRASGVPDRFSGSGSGTDFTLKISRVEAEDVGVYHCGQLLENPYTFGQGTKLEIK

Chain of human GPRC5D (Q9NZD1 whole entry): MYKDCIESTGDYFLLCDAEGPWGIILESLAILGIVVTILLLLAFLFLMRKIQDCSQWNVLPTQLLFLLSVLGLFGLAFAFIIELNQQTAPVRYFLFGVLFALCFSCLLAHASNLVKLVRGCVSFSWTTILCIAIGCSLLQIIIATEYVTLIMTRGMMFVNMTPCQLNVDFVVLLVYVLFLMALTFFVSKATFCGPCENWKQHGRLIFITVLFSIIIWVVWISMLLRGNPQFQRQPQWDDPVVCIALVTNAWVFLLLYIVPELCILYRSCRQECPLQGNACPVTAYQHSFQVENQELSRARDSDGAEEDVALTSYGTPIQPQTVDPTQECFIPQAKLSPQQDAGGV

This experiment addresses human GPRC5D (human, UniProt Q9NZD1 1-345). In words: cell-based or functional assay.
Take B1: the “CAR-J2 EC50” value amounted to 0.0235 µg/mL.

With B2, the “CAR-J2 EC50” value was 0.0619 µg/mL.

For B3, the “CAR-J2 EC50” value was found to be 0.00363 µg/mL.

Consider B4, for which the “CAR-J2 EC50” value was 0.19 µg/mL.

Regarding B5, the “CAR-J2 EC50” value amounted to 0.514 µg/mL.

Turning to B6, the “CAR-J2 EC50” value was determined as 0.152 µg/mL.

B7: the “CAR-J2 EC50” value amounted to 0.183 µg/mL.

On to B8, for which the “CAR-J2 EC50” value was 0.0842 µg/mL.

B9: the “CAR-J2 EC50” value worked out at 0.00896 µg/mL.

Consider B10, for which the “CAR-J2 EC50” value was found to be 0.00162 µg/mL.

Take B11: the “CAR-J2 EC50” value was 0.00295 µg/mL.

B12: the “CAR-J2 EC50” value was determined as 0.145 µg/mL.

In the case of B13, the “CAR-J2 EC50” value amounted to 0.0415 µg/mL.

As for B14, the “CAR-J2 EC50” value was 0.0821 µg/mL.

Regarding B15, the “CAR-J2 EC50” value was 0.0746 µg/mL.

As for B16, the “CAR-J2 EC50” value amounted to 0.17 µg/mL.

In the case of B17, the “CAR-J2 EC50” value is 0.00644 µg/mL.

For the molecule B18, the “CAR-J2 EC50” value is 0.00138 µg/mL.

On to B19, for which the “CAR-J2 EC50” value amounted to 0.0014 µg/mL.

In the case of B20, the “CAR-J2 EC50” value was determined as 0.0206 µg/mL.

B21: the “CAR-J2 EC50” value was 0.509 µg/mL.

The values are drawn from patent publication US20220411491A1 (Hoffmann-La Roche, published 2022).
